Assay results published in patent publication US20060246520A1, “Gamma delta t cell-mediated therapy” (INSTITUT NATIONAL DE LA SANTE ET DE LA RECHERCHE MEDICALE, priority 2003, published 2006).

How the values were obtained:
K562 cells = assay: PE-labelled TCR tetramer staining of serum-depleted K562 cells incubated with apolipoproteins or competing mAb; assay type: cell-based, human; conditions: serum-depleted K562, apolipoprotein preparations 100 μg/ml
Method: FIG. 3: Vγ9Vδ2 TCR binding to tumor cells and apoA-I. PE-labeled tetrameric TCRs from clone G115 and clone 73R9 were used to stain tumor cell lines and assess the influence of apolipoproteins on their tumor recognition. Shaded histograms: concentration-matched streptavidin-PE alone. Line histograms: binding of the indicated PE-labelled tetrameric TCR. (a) Cell lines were cultured in 10% fcs before staining with tetramers. (b) K562 cells were serum-depleted, incubated with 10% human serum or the indicated apolipoprotein preparations (100 μg/ml) and stained with G115 or 73R9 TCR tetramers. (c) Serum-depleted K562 cells were incubated with 100 μg/ml of HDL hApoA-I (left histogram) or hM5L (right histogram) and labeled with G115 TCR tetramers in the presence of the indicated competing mAb (20 μg/ml). […] Data are representative of three experiments.
Immunofluorescence stainings were performed in PBS containing 1% BSA and devoid of serum using FITC-conjugated goat F(ab)′2 anti-mouse Ig antibody (Caltag) as the second step reagent. Irrelevant isotype-matched control antibodies were used as negative controls. In apolipoprotein binding experiments, serum-deprived cells were incubated with serum or purified protein preparations in PBS containing 1% BSA, at room temperature, 30 minutes prior to antibody staining. 7H10 (anti-α-ATP synthase) and 3D5 (anti-β-ATP synthase) and 7F9 (anti-γ-ATP synthase) are from Molecular Probes. 4H1 (anti-human apoA-I) (Collet et al., 1997) was obtained from Dr Y. Marcel (Ottawa).
The G115 (Vγ9Vδ2) (3) and 73R9 (Vγ8Vδ3) extracellular γ and δ chains (the latter carrying a short 3′ Biotin tag) were expressed in Escherichia coli, then refolded together by rapid dilution in 1 L of 1 M L-arginine, 0.1 M Tris-HCl, pH 8.0 and 0.2 mM reduced/0.2 mM oxidized glutathione. After dialysis against 10 mM Tris-HCl pH 8.0, concentration by cation exchange chromatography at pH 5.5, and purification by size exclusion chromatography at pH 8.0, the refolded protein was biotinylated for 4 h at 30° C. with 6 μg/ml BirA and excess of free biotin was removed by dialysis against 10 mM Tris-HCl pH 8.0, 150 mM NaCl. Tetramers of γδ TCR heterodimers were obtained by mixing the biotinylated TCR with phycoerythrin-labeled streptavidin (Biosource) at a molar ratio of 10:1. For staining, 2.10^5 cells were incubated at room temperature for 45 min with phycoerythrin-labeled γδ TCR tetramers at a concentration of TCR of 30 μg/ml in PBS plus 1% BSA. Background staining was determined using phycoerytlrin-labeled streptavidin at the same concentration.

[1] = molecular target: purified bovine ATP synthase (F1 subunit) (bovine) (UniProt P19483); assay: SPR (Biacore 3000), ATP synthase (F1) immobilized (22440 RU), TCR injected at 0.5 to 4 µM
[2] = molecular target: human lipid-free apoA-I prepared from high density lipoprotein particles (HDL-apoA-I) (human) (UniProt P02647); assay: SPR (Biacore 3000), apoA-I immobilized (2260 RU), TCR injected at 125 nM to 2 µM
[3] = molecular target: single binding receptor for apoA-I on Daudi cells; assay: Scatchard analysis of 125I-labelled free apoA-I binding to Daudi cells, 2 h at 4° C.
Raji cells = assay: 125I-labelled free apoA-I binding assay on Raji cells; parameters: species or system human; conditions: 2 hours at 4° C.
Method: (§1) (e): ^125I-labelled free apoA-I binding was measured after 2 hours incubation at 4° C. on Daudi and Raji cells. Top and bottom panels: binding isotherm of ^125I-labeled free apoA-I to Daudi (top) and Raji (bottom) cells. (◯): total binding, (σ): non-specific binding; (●): specific binding. Middle panel: Scatchard representation of specific binding on Daudi cells.
(§2) The binding experiments were performed at 4° C. for 2 hours as previously described (Barbaras et al., 1994). Briefly, cells (9 μg of cell proteins per point) were incubated in PBS for 2 hours at 4° C. with increasing concentrations of labeled apoA-I. Cells were filtered on 0.22 μm filters (GVWP Millipore-France) and washed four times with 1% BSA in PBS. Filters were used for radioactivity measurements. Non-specific binding was determined in the presence of a 100-fold excess (as compared to the KD value) of the corresponding unlabeled ligand. Binding was analyzed using a weighted non-linear curve-fitting program, based on the LIGAND analysis program (Prism-GraphPad).

Vγ9Vδ2 T cells = assay: TNFα secretion by T cell clones stimulated with protein-coated latex beads; assay type: cell-based, human; conditions: serum-free (sfm)
Source text: FIG. 6: Induction of Vγ9Vδ2 T cell lymphokine secretion by immobilized ATP-synthase. HDL-derived apoA-I and ATP synthase were immobilized on latex beads and these were used to stimulate T cell populations. none: no stimulation; empty: beads saturated with BSA; apoA-I: beads coated with apoA-I only. AS: beads coated with the F1 extra-membrane subunit of bovine ATP synthase. AS/apoA-I: beads coated with both protein preparations.
[…] The capacity of γδ clones G25, G115, 73R9 to secrete significant amounts of TNFα upon stimulation was checked by using Daudi cells as target cells as well as PMA/ionomycin or PHA. The αβ clone A4.19 secretes saturating quantities of TNFα upon PMA/ionomycin or PHA stimulation (not shown). […]
2 h- ^51Cr-release assays were performed in standard conditions except for the use of serum-free conditions in some experiments: in sensitization experiments with apolipoprotein preparations, target tumor cells were serum-deprived as described for facs analysis, loaded with ^51Cr (100 μCi/10^6 cells, 1 hour, 37° C.), extensively washed in RPMI and resuspended in sfm medium. […] Specific lysis was calculated as the percentage of maximum release. […] IFNγ was titrated by a specific Elisa technique, whereas TNFα concentration was assessed by a biological assay based on WEHI cells viability. […]

Daudi cells [4] = assay: 125I-labelled free apoA-I binding assay on Daudi cells (Scatchard); parameters: species or system human; conditions: 2 hours at 4° C.; single binding receptor; read-out: KD of binding to Daudi cells (Scatchard analysis)
Method: as §1, §2

immobilized Vγ9Vδ2TCR = assay: SPR: purified apolipoprotein binding to immobilized Vγ9Vδ2TCR; parameters: species or system human; conditions: soluble proteins injected at 100 μg/ml; immobilized TCR 335 RU
Source text: FIG. 7. Surface plasmon resonance analysis. Soluble proteins were exposed to the sensorchip surface for 240 s (association phase) followed by a 240-s flow running (dissociation phase). Immobilized proteins were on sensorchips flowcell 2. Sensorgrams are representative of specific interactions (differential response) where non-specific binding that occurred on flow cell 1 (with no protein immobilized) was deduced from binding that occurred on flow cell 2. Results are expressed as resonance units (RU) as a function of time in seconds.
(c) Comparative sensorgrams of purified apoA-I (full line) and apoA-II (dotted line) binding to immobilized Vγ9Vδ2TCR (proteins were injected at 100 μg/ml). Amount of immobilized TCRγδ protein was 335 RU on flow cell 2.
ApoA-I and ATP synthase (F1 subunit) were immobilized by amine linkage on CM5 chips (Biacore AB) following NHS-EDC activation; Vγ9Vδ2-biotinylated soluble TCRs were immobilized on SA streptavidin-coated chips (Biacore AB) and binding was analyzed in a Biacore 3000 apparatus (BiacoreAB). Soluble ligands were injected at a flow rate of 20 μl/min, exposed to the surface for 240 s (association phase) followed by a 240-s flow running during which the dissociation occurred. […] Results are expressed as resonance units (RU) as a function of time in seconds.

Daudi cells [5] = assay: 51Cr release assay of Daudi cytolysis by effector T cell clones in serum-free medium; assay type: cell-based, human; conditions: serum-depleted targets
Method: FIG. 2: ApoA-I-dependent activation of Vγ9Vδ2 T cells. ^51Cr release assays were performed in serum-free medium (sfm) to assess dependance on serum and apoA-I of Daudi cytolysis by different effector T cell populations. G25 and G42: Vγ9Vδ2 T cell clones, 73R9: Vγ8Vδ3 T cell clone. M5L (bovine serum component immunopurified with M5 antibody) was tested at the indicated concentration for its ability to substitute for serum (fcs). Recombinant annexin V was used as a control purified protein.
2 h- ^51Cr-release assays were performed in standard conditions except for the use of serum-free conditions in some experiments: in sensitization experiments with apolipoprotein preparations, target tumor cells were serum-deprived as described for facs analysis, loaded with ^51Cr (100 μCi/10^6 cells, 1 hour, 37° C.), extensively washed in RPMI and resuspended in sfm medium. Effector T cells cultivated in serum-containing medium were washed extensively in RPMI, incubated for 2 hours in sfm at 37° C. and resuspended in sfm medium. […] Specific lysis was calculated as the percentage of maximum release. […] IFNγ was titrated by a specific Elisa technique, whereas TNFα concentration was assessed by a biological assay based on WEHI cells viability.

Chain of UniProt P02647 (P02647 25-267 limits assumed): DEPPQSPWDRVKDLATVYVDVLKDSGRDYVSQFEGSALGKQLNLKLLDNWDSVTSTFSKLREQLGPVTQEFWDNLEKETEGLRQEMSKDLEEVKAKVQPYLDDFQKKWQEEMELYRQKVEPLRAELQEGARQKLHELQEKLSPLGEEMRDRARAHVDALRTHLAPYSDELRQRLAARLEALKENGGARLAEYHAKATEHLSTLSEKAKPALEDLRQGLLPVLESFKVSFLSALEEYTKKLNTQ

“apoA-II: purified apolipoprotein A-II, control of hydrophobicity similar to that of apoA-I [reference compound]” was tested, and the “effect on Vγ9Vδ2 TCR tetramer binding to K562” value (K562 cells) was “did not enhance”.

With “hM5L: human serum ligand of M5 mAb, immunopurified; identity to apoA-I confirmed” the “effect on Vγ9Vδ2 TCR tetramer binding to K562” value (K562 cells) was “increased”.

In the case of soluble monomeric G115 TCR (Vγ9Vδ2), the Kd [1] is reported as 1510 nM, the koff [1] is reported as 0.00254 s⁻¹ and the kon [1] is reported as 1680 M⁻¹ s⁻¹. For the same molecule, the Kd [2] was 810 nM, the koff [2] was 0.00713 s⁻¹ and the kon [2] was 8800 M⁻¹ s⁻¹.

Molecule “human lipid-free apoA-I prepared from high density lipoprotein particles (HDL-apoA-I) (from UniProt P02647 25-267) (ligand)” has a Kd [3] of 80 nM.

For apolipoprotein A-I [apoA-I], the “effect on Vγ9Vδ2 TCR tetramer binding to K562” value (K562 cells) was “increased”, the “effect on binding of Vγ8Vδ3 TCR tetramers to K562” value (K562 cells) was “neither serum, nor apoA-I, affected the binding” and the “specific binding on Raji cells” value (Raji cells) was “absence of specific binding”. For the same molecule, the “stimulatory activity on Vγ9Vδ2 T cells in serum-free conditions” value (Vγ9Vδ2 T cells) was “relatively minor increase”, the Kd (Daudi cells [4]) was 80 nM and the “interaction with immobilized G115 TCR” value (immobilized Vγ9Vδ2TCR) was “specifically interacted”.

B1: M5L: bovine serum component immunopurified with M5 antibody, ~28 kDa, identified as apolipoprotein A-I (protein, UniProt P15497 25-265, looked up)
Apolipoprotein A-I: DDPQSSWDRVKDFATVYVEAIKDSGRDYVAQFEASALGKQLNLKLLDNWDTLASTLSKVREQLGPVTQEFWDNLEKETASLRQEMHKDLEEVKQKVQPYLDEFQKKWHEEVEIYRQKVAPLGEEFREGARQKVQELQDKLSPLAQELRDRARAHVETLRQQLAPYSDDLRQRLTARLEALKEGGGSLAEYHAKASEQLKALGEKAKPVLEDLRQGLLPVLESLKVSILAAIDEASKKLNAQ
B1 was tested, and the “effect on Daudi cell lysis by control Vγ8Vδ3 T cell clone (#73R9)” value (Daudi cells [5]) was “neither affected by serum deprivation nor by addition of M5L” and the “effect on Vγ9Vδ2 T cell-mediated lysis of Daudi cells” value (Daudi cells [5]; Vγ9Vδ2 clones G25, G42) was “increased Vγ9Vδ2 T cell-mediated lysis in a dose-dependent manner”.
